How the values were obtained:
[1] = molecular target: human motilin receptor spliced form A (MTL-R1A) (human); experiment: cell-based or functional assay
[2] = molecular target: human motilin receptor spliced form A (MTL-R1A) (human); experiment: displacement of [125I] human motilin from crude membranes of MTL-R1A transfected HEK-293/aeq17 cells
[3] = molecular target: human motilin receptor spliced form A (MTL-R1A) (human); experiment: direct radioligand binding on cell membranes of MTL-R1A transfected cells

Substance	Aequorin Assay (EC50 nM) [1] [nM]	IC50 [2] [nM]	bioluminescent response, aequorin assay, 100 nM peptide (fold over background) [1]	Bmax (fmol/mg protein) [3]	Kd [3] [nM]
1-11 MTL (from UniProt P12872 26-36) (peptide)	138	127	–	–	–
human motilin (MTL) (from UniProt P12872 26-47) (peptide)	2.1	0.5	> 4	–	–
10-22 MTL (from UniProt P12872 35-47) (peptide)	> 10000	1100	–	–	–
canine motilin (from UniProt P19863 1-22) (peptide)	4.4	0.2	–	–	–
1-19 MTL (from UniProt P12872 26-44) (peptide)	4.1	0.3	–	–	–

Next, values leading:

Aequorin Assay (EC50 nM) [1] [nM]	IC50 [2] [nM]	bioluminescent response, aequorin assay, 100 nM peptide (fold over background) [1]	Bmax (fmol/mg protein) [3]	Kd [3] [nM]	Substance
3.8	0.9	–	–	–	1-13 MTL (from UniProt P12872 26-38) (peptide)
–	–	–	240	0.1	[125I]-Tyr7-human motilin (from UniProt P12872 26-47) (peptide)
3.9	0.2	–	–	–	Leu 13 MTL (from UniProt P12872 26-115) (peptide)
72	14	–	–	–	1-12 MTL (from UniProt P12872 26-37) (peptide)
